According to IntAct's records for PubMed 31515488:

B1: Zinc finger protein 473 (Homo sapiens), Q8WTR7 (parent)
chain: MAEEFVTLKDVGMDFTLGDWEQLGLEQGDTFWDTALDNCQDLFLLDPPRPNLTSHPDGSEDLEPLAGGSPEATSPDVTETKNSPLMEDFFEEGFSQEIIEMLSKDGFWNSNFGEACIEDTWLDSLLGDPESLLRSDIATNGESPTECKSHELKRGLSPVSTVSTGEDSMVHNVSEKTLTPAKSKEYRGEFFSYSDHSQQDSVQEGEKPYQCSECGKSFSGSYRLTQHWITHTREKPTVHQECEQGFDRNASLSVYPKTHTGYKFYVCNEYGTTFSQSTYLWHQKTHTGEKPCKSQDSDHPPSHDTQPGEHQKTHTDSKSYNCNECGKAFTRIFHLTRHQKIHTRKRYECSKCQATFNLRKHLIQHQKTHAAKTTSECQECGKIFRHSSLLIEHQALHAGEEPYKCNERGKSFRHNSTLKIHQRVHSGEKPYKCSECGKAFHRHTHLNEHRRIHTGYRPHKCQECVRSFSRPSHLMRHQAIHTAEKPYSCAECKETFSDNNRLVQHQKMHTVKTPYECQECGERFICGSTLKCHESVHAREKQGFFVSGKILDQNPEQKEKCFKCNKCEKTFSCSKYLTQHERIHTRGVKPFECDQCGKAFGQSTRLIHHQRIHSRVRLYKWGEQGKAISSASLIKLQSFHTKEHPFKCNECGKTFSHSAHLSKHQLIHAGENPFKCSKCDRVFTQRNYLVQHERTHARKKPLVCNECGKTFRQSSCLSKHQRIHSGEKPYVCDYCGKAFGLSAELVRHQRIHTGEKPYVCQECGKAFTQSSCLSIHRRVHTGEKPYRCGECGKAFAQKANLTQHQRIHTGEKPYSCNVCGKAFVLSAHLNQHLRVHTQETLYQCQRCQKAFRCHSSLSRHQRVHNKQQYCL
partner: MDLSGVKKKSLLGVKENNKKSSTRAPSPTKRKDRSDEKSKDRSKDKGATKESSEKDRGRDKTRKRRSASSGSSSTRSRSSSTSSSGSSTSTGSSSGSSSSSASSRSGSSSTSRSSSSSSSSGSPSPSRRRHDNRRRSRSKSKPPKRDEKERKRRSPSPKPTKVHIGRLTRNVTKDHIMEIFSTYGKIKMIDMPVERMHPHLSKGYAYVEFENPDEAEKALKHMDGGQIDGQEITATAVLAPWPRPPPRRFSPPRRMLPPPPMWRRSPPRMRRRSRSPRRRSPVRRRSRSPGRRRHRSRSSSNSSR
B2: Pre-B-cell leukemia transcription factor 4 (Homo sapiens), Q9BYU1 (parent)
chain: MAAPPRPAPSPPAPRRLDTSDVLQQIMAITDQSLDEAQARKHALNCHRMKPALFSVLCEIKEKTVVSIRGIQDEDPPDAQLLRLDNMLLAEGVCRPEKRGRGGAVARAGTATPGGCPNDNSIEHSDYRAKLSQIRQIYHSELEKYEQACREFTTHVTNLLQEQSRMRPVSPKEIERMVGAIHGKFSAIQMQLKQSTCEAVMTLRSRLLDARRKRRNFSKQATEVLNEYFYSHLNNPYPSEEAKEELARKGGLTISQVSNWFGNKRIRYKKNMGKFQEEATIYTGKTAVDTTEVGVPGNHASCLSTPSSGSSGPFPLPSAGDAFLTLRTLASLQPPPGGGCLQSQAQGSWQGATPQPATASPAGDPGSINSSTSN
partner: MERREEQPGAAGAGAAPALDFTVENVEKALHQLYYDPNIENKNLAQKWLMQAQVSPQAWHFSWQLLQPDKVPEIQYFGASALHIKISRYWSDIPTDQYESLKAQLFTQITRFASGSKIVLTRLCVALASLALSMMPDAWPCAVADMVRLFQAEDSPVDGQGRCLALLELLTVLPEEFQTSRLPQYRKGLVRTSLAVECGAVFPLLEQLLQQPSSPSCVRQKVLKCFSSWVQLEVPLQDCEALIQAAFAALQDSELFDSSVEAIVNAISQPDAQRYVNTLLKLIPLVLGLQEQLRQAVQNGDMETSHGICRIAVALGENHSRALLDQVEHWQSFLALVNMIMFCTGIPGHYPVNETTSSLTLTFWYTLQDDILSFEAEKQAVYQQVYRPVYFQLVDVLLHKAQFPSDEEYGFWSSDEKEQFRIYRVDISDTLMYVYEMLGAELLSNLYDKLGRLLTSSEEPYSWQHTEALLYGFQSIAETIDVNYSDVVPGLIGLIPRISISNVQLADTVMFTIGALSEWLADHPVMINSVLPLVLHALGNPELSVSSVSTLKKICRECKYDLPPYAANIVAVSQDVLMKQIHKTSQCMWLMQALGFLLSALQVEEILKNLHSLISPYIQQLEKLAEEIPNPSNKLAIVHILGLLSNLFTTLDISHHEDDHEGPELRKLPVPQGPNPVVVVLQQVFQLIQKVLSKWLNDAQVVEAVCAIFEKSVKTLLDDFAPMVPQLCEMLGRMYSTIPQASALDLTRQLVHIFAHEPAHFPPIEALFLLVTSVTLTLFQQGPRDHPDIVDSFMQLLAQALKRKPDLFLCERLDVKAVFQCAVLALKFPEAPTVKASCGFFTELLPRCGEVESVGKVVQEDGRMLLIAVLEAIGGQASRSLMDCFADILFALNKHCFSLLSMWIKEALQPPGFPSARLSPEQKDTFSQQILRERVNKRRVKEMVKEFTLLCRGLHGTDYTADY

Variants of: B1
Details: with rnps1_human RNPS1, Q15287
For Y456H, the “effect of a mutation on the interaction” value was “with no effect”. In the case of N82S, the “effect of a mutation on the interaction” value is reported as “with no effect”. With T164M the “effect of a mutation on the interaction” value was “with no effect”. T654I was tested, and the “effect of a mutation on the interaction” value was “with no effect”. In the case of R223C, the “effect of a mutation on the interaction” value is reported as “with no effect”. R605Q was tested, and the “effect of a mutation on the interaction” value was “disrupting interaction strength”. In the case of E309G, the “effect of a mutation on the interaction” value is reported as “with no effect”. In the case of S662A, the “effect of a mutation on the interaction” value is reported as “with no effect”. In the case of S59G, the “effect of a mutation on the interaction” value is reported as “with no effect”. With S535N the “effect of a mutation on the interaction” value was “with no effect”.

Variants of: B2
Details: with ipo13_human IPO13, O94829
In the case of R327Q, the “effect of a mutation on the interaction” value is reported as “with no effect”. In the case of T154M, the “effect of a mutation on the interaction” value is reported as “with no effect”.
